The values that follow come from patent publication US20070298448A1 (PROTEOSYS, published 2007).

Assay [1] addresses T1, [Cys(Bz)^84, Glu(OBz)^85]-CD4(81-92) (UniProt P01730 106-117, reading uncertain).
T1 construct: range 81-92; Synthetic derivatized peptide
T1 peptide: TYIC(Bz′)E(OBz)VEDQKEE
Description: mutant immobilized on Ni-NTA-agarose beads, peptide incubated, washed, eluted with 200 mM acetic acid, MALDI-TOF.

In another assay the target is T2, human angiotensin I (human, UniProt P01019 25-34).
T2 construct: also called calibration peptide; control peptide
Description: peptide incubated with mutant on Ni-NTA-agarose beads, washed, acid eluate read by MALDI-TOF.

The target in another assay is T3, human angiotensin II (human, UniProt P01019 25-32).
T3 construct: also called calibration peptide; control peptide
The assay is described as above.

Primed or numbered codes have the meaning given here. Ends that are not written are not given here. Bz′ = not defined here; OBz = not defined here

B1: 6xHis-Ser237Ala-V8Δ48 mutant (enzyme)
chain: MRGSHHHHHHGSVILPNNDRHQITDTTNGHYAPVTYIQVEAPTGTFIASGVVVGKDTLLTNKHVVDATHGDPHALKAFPSAINQDNYPNGGFTAEQITKYSGEGDLAIVKFSPNEQNKHIGEVVKPATMSNNAETQVNQNITVTGYPGDKPVATMWESKGKITYLKGEAMQYDLSTTGGNAGSPVFNEKNEVIGIHWGGVPNEFNGAVFINENVRNFLKQNIEDIHFANDDQKLN
notes: also called Ser237Ala-V8Δ48 protease; anhydro mutant of the V8 proteinase
For the molecule B1, the binding result in assay [1] is “binds”; with human angiotensin I it was “no binding”; with human angiotensin II it was “no binding”.
